The source of these data is article PMC4551323 (Molecular Biology of the Cell, 2015).

In the test the target is HA-tagged type II TGF-β receptor (TβRII) (human, UniProt P37173 23-567). In words: patch/FRAP.
HA-tagged type II TGF-β receptor (TβRII), sequence (P37173 23-567): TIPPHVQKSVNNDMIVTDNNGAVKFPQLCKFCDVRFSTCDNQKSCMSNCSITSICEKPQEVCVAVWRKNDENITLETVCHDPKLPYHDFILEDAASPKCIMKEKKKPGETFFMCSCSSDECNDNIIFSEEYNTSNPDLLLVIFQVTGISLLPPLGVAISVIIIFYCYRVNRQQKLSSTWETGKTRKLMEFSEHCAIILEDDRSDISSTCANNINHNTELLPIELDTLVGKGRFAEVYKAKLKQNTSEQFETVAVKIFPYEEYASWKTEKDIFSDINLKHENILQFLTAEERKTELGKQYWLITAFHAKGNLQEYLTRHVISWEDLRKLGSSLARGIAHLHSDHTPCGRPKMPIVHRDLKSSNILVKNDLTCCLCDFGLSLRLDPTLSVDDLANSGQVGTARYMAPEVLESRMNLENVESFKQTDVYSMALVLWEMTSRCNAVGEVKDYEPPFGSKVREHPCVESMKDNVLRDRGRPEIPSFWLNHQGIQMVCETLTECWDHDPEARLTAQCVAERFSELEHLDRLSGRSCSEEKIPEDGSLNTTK

B1: myc-tagged ALK5 (type I TGF-β receptor, TβRI) (receptor)
chain: LQCFCHLCTKDNFTCVTDGLCFVSVTETTDKVIHNSMCIAEIDLIPRDRPFVCAPSSKTGSVTTTYCCNQDHCNKIELPTTVKSSPGLGPVELAAVIAGPVCFVCISLMLMVYICHNRTVIHHRVPNEEDPSLDRPFISEGTTLKDLIYDMTTSGSGSGLPLLVQRTIARTIVLQESIGKGRFGEVWRGKWRGEEVAVKIFSSREERSWFREAEIYQTVMLRHENILGFIAADNKDNGTWTQLWLVSDYHEHGSLFDYLNRYTVTVEGMIKLALSTASGLAHLHMEIVGTQGKPAIAHRDLKSKNILVKKNGTCCIADLGLAVRHDSATDTIDIAPNHRVGTKRYMAPEVLDDSINMKHFESFKRADIYAMGLVFWEIARRCSIGGIHEDYQLPYYDLVPSDPSVEEMRKVVCEQKLRPNIPNRWQSCEALRVMAKIMRECWYANGAARLTALRIKKTLSQLSQQEGIKM
For the molecule B1, the “fold increase of complex formation with TGF-β1 against no ligand” value was approximately 2 fold.
